Measurements from US20130344592A1 (University of Pennsylvania, published 2013).
Positions of bridges follow the written chain, without caps; N, C: chain ends. No end group written: not given here.

B1: Phage clone 4A1 (class 1, library ANL4) (peptide)
peptide: ASSGMCFTKKTVLC
notes: not shown: not specified for the library
B2: Phage clone 5D1 (class 3, library ANL5) (peptide)
peptide: ASPSWCSYSHWCRH
notes: as for B1
B3: Phage clone 5-2C6 (class 2, library ANL5) (peptide)
peptide: ASSYDVGYSHDCRF
notes: as for B1
B4: Phage clone 5G11 (class 3, library ANL5) (peptide)
peptide: ASSNVCSYSYWCAH
notes: as for B1
B5: Synthetic 5C6 peptide (peptide)
peptide: ASSSRCTYDHWCSH-NH2
modifications: disulfide 6-12; N-terminus assumed
SMILES: C[C@H](N)C(=O)N[C@@H](CO)C(=O)N[C@@H](CO)C(=O)N[C@@H](CO)C(=O)N[C@@H](CCCNC(=N)N)C(=O)N[C@H]1CSSC[C@@H](C(=O)N[C@@H](CO)C(=O)N[C@@H](Cc2c[nH]cn2)C(N)=O)NC(=O)[C@H](Cc2c[nH]c3ccccc23)NC(=O)[C@H](Cc2c[nH]cn2)NC(=O)[C@H](CC(=O)O)NC(=O)[C@H](Cc2ccc(O)cc2)NC(=O)[C@H]([C@@H](C)O)NC1=O
notes: also called peptide 5C6
B6: Biotinylated 5C6 peptide (peptide)
peptide: ASSSRCTYDHWCSH-{K(biotin)-NH2}
modifications: disulfide 6-12
notes: Captured on coated streptavidin (polystyrene wells or SPR chips); also called immobilized 5C6 peptide; not shown: C-terminal lysine carrying biotin
B7: Biotinylated control peptide (linear compstatin, Cys-to-Ala double mutant) (peptide)
peptide: IAVVQDWGHHRAT
modifications: also: biotinylated, site not given here
notes: captured on coated streptavidin; also called LC; negative control peptide
B8: Phage clone 5-2B2 (class 3, library ANL5) (peptide)
peptide: ASSCMYSYWCTH
notes: as for B1
B9: Phage clone 5C6 (class 3, library ANL5) (peptide)
peptide: ASSSRCTYDHWCSH
notes: also called parent phage of the 5C6 peptide; not shown: not specified for the library
B10: Phage clone 5E10 (class 3, library ANL5) (peptide)
peptide: ASSFKCDYSHWCLH
notes: as for B1

Assays:
Human factor H [1] = target: T1, Human factor H (human, UniProt P08603 19-1231); test: monoclonal phage ELISA on coated factor H
T1 construct: mature; Plasma-derived protein; also called fH
Protocol: (§1) Microtiter wells were coated overnight with either factor H or BSA at 5 μg/mL in PBS at 4° C., and saturated with 5% non-fat milk in PBST for 1 h. Completely separated individual phage plaques from the third round of screening were picked and amplified. Phage particles of each amplified individual phage plaque were added to both factor H- and BSA-coated wells in parallel and allowed to bind at RT for 1 h. After six washes with PBST, bound phages were detected with HRP-conjugated anti-M13 monoclonal antibody (GE Healthcare), using ABTS (Roche) for color development. Clones that bound to factor H but not to BSA were considered positive; single-stranded DNA from positive clones was prepared using an M13 kit (Qiagen, Valencia, Calif.) and sequenced by the DNA sequencing facility of the University of Pennsylvania.

BSA = target: T2, BSA (UniProt P02769 25-607); test: monoclonal phage ELISA, BSA coated at 5 µg/mL
T2 construct: Only printed as 'BSA'
Protocol: as §1

fH19-20 [2] = target: T3, fH19-20 (human, UniProt P08603 1107-1231); test: monoclonal phage ELISA on coated fragment
T3 construct: domain: SCR19-20; also called factor H SCR19-20; C-terminal two SCR of factor H
T3 sequence (looked up): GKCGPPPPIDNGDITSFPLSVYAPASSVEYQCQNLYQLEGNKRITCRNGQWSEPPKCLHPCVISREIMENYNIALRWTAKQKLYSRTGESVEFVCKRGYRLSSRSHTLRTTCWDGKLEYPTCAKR
Protocol: as §1
(§2) To localize the binding sites on factor H of the positive clones, we further tested each clone by monoclonal phage ELISA for binding to factor H and its N- and C-terminal fragments, i.e. fH1-4 and fH19-20.

fH19-20 [3] = target: T3, fH19-20; test: monoclonal phage ELISA
Protocol: as §1, §2

factor H SCR 1-4 (fH1-4) [4] = target: T4, factor H SCR 1-4 (fH1-4) (human, UniProt P08603 19-264); test: monoclonal phage ELISA
T4 construct: domain: SCR 1-4; also called N-terminal fragment of factor H; regulatory fH1-4 fragment
Protocol: as §1, §2

factor H SCR 1-4 (fH1-4) [5] = target: T4, factor H SCR 1-4 (fH1-4); test: monoclonal phage ELISA on coated fragment
Protocol: as §1, §2

Human factor H [6] = target: T1, Human factor H; test: peptide-phage competition ELISA on coated factor H
Protocol: (§3) Two approaches were used to evaluate the binding of synthetic peptides to factor H. First, we used peptide-phage competition assays, in which serially diluted synthetic peptide was added to its parent phage at the step of phage binding to coated factor H. The rest of the steps were performed as described above for monoclonal phage ELISA. Second, ELISA experiments were used to evaluate the binding of factor H to the immobilized peptide. Microtiter plates were coated with streptavidin (New England Biolabs) at 10 μg/ml in PBS at 4° C. overnight, and saturated with 2% BSA in PBS. After washing, either the biotinylated 5C6 peptide or a biotinylated control peptide (linear compstatin; […]) was added at 10 μg/ml and allowed to bind at RT for 30 min. The wells were washed again, and factor H serially diluted in PBS, starting with 2.5 μg/ml, was added. After 1 h of binding, the plates were washed, and bound factor H was detected with goat anti-human factor H polyclonal antibody (Quidel, San Diego, Calif.), followed by HRP-conjugated rabbit anti-goat IgG (Bio-Rad). […]

Human factor H [7] = target: T1, Human factor H; test: ELISA, biotinylated peptide on coated streptavidin, purified factor H detected by polyclonal antibody
Protocol: as §3, with “The wells were washed again, and factor H serially diluted in PBS, starting with 2.5 μg/ml, was added.” left out
(§4) The direct binding between the peptide and factor H was initially evaluated in an ELISA experiment, in which the biotinylated 5C6 peptide and a biotinylated control peptide of similar size and charge (i.e., linear compstatin) were captured by coated streptavidin and the binding of purified factor H was detected by polyclonal antibodies.

factor H SCR 1-4 (fH1-4) [8] = target: T4, factor H SCR 1-4 (fH1-4); test: SPR, biotinylated peptide captured on streptavidin chip, fragment injected
Protocol: The binding of factor H with surface-bound 5C6 peptide was further characterized using surface plasmon resonance (SPR) on a ProteOn XPR36 instrument (Bio-Rad Inc., Hercules, Calif.) using PBST (10 mM sodium phosphate, 150 mM NaCl, 0.005% Tween 20) as running buffer. Streptavidin (50 μg/ml in 10 mM sodium acetate pH 5.0) was immobilized on a GLC sensor chip at 30° C. using amine coupling. The biotinylated 5C6 peptide and a biotinylated control peptide (linear compstatin; see above) were captured on separate streptavidin-coated channels to a density of ˜200 resonance units (RU). Purified factor H (Complement Technologies, Tyler, Tex.) or recombinant fragments fH1-4 and fH19-20 were injected at a concentration of 100 nM for 2 rain at a flow rate of 25 μl/min with a dissociation phase of 6 min. A single injection of 2 M NaCl for 30 s was used to regenerate the surface between injections. […]
The binding activity and specificity was further validated using SPR assays, by simultaneously injecting factor H or its fragments over biotinylated 5C6 peptide and the control peptide, which were captured on a streptavidin-coated sensor chip. […] While a significant SPR response could also be detected for the fH19-20 fragment, this interaction was not stable and the signal rapidly returned to baseline. […]

Human factor H [9] = target: T1, Human factor H; test: ELISA, biotinylated peptide on coated streptavidin, factor H detected by polyclonal antibody
Protocol: as §3, with “The wells were washed again, and factor H serially diluted in PBS, starting with 2.5 μg/ml, was added.” left out
as §4

T4 sequence (P08603 19-264 limits assumed): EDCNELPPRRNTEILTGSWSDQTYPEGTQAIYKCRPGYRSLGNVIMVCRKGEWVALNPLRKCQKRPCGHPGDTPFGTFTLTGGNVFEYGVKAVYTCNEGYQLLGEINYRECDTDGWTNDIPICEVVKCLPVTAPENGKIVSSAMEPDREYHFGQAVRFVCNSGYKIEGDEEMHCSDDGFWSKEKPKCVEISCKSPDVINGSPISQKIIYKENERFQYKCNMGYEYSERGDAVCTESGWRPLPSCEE
T2 sequence (P02769 25-607 limits assumed): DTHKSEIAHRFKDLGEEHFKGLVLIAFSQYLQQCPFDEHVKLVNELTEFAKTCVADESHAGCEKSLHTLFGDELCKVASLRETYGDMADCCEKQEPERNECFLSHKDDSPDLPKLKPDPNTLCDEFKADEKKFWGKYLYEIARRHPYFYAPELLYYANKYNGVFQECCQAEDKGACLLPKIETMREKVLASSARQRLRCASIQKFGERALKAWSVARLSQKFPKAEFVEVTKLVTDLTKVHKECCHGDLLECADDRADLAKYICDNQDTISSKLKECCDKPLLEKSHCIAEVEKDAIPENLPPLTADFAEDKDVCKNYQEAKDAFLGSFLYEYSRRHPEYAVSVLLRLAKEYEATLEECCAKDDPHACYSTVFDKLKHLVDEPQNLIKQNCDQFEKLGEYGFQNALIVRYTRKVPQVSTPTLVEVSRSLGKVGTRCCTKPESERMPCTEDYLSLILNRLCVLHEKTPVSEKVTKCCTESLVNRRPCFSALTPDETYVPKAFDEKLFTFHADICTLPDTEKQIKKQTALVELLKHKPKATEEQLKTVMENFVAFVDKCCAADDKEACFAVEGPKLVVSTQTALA

Row | Binder | binding result (Human factor H [1]) | binding result (BSA) | binding result (fH19-20 [3]) | binding result (factor H SCR 1-4 (fH1-4) [4]) | further results
1 | B1 | binds | no binding | – | – | binding result (fH19-20 [2]): binds
2 | B2 | binds | no binding | no binding | no binding | –
3 | B3 | binds | no binding | – | – | binding result (factor H SCR 1-4 (fH1-4) [5]): binds
4 | B4 | binds | no binding | no binding | no binding | –
5 | B5 | – | – | – | – | binding result (Human factor H [6]): binds
6 | B6 | – | – | – | – | binding result (Human factor H [7]): binds; binding result (factor H SCR 1-4 (fH1-4) [8]): no binding (tested: 100 nM)
7 | B7 | – | – | – | – | binding result (Human factor H [9]): no binding
8 | B8 | binds | no binding | no binding | no binding | –
9 | B9 | binds | no binding | – | no binding | –
10 | B10 | binds | no binding | no binding | no binding | –
